The text below walks through data of US20190077860A1 (EISAI R AND D MANAGEMENT, published 2019).

For assay [1], the target named is T1, human EphA4 extracellular region-SEAP-His protein (human, UniProt P54764 20-547).
T1 construct: also called hEphA4-SEAP-His
The assay can be described thus: SPR, Ab captured. The protocol:
The binding affinity of each anti-EphA4 monoclonal humanized antibody obtained in Example 16 for human EphA4 was determined by surface plasmon resonance (SPR) using Biacore T200 (GE Healthcare). First, for the assay of antibody A, a rat anti-mouse IgG₁ antibody produced with a conventional method by immunizing rat with mouse IgG₁ antibody was immobilized on sensor chip CM5. The immobilization of the rat anti-mouse IgG1 antibody on sensor chip CM5 was performed by the amine coupling method using N-hydroxysuccinimide (NHS) and N-ethyl-N′-(3-dimethylaminopropyl)carbodiimide hydrochloride (EDC). Ethanolamine was used in blocking (the sensor chip and the reagents for immobilization were all manufactured by GE Healthcare). The antibody was diluted with a buffer solution for immobilization (10 mM sodium acetate, pH 4.5) and immobilized on the sensor chip according to the protocol attached to Biacore T200. For the assay of each humanized monoclonal antibody, a protein A chip (GE Healthcare, 29-1383-03) was used. Antibody A or the humanized monoclonal antibody was diluted with a running buffer solution HBS-EP (GE Healthcare), injected onto only flow cell 2 for 120 seconds, and captured (captured amount: approximately 30 to 60 RU). Subsequently, human EphA4 extracellular region-SEAP-His protein serially diluted in the range of 50, 16.7, 5.6, 1.9, and 0.6 nM using HBS-EP was sequentially added from the lower toward higher concentration sides without regeneration operation. Binding reaction curves were sequentially observed at the time of the addition (association phase, for 120 sec) and after the completion of the addition (dissociation phase, for 900 sec). After the completion of each observation, the sensor chip was regenerated by the addition of 3 M MgCl₂ (for 60 sec) or 10 mM Glycine-HCl pH 1.5 (for 30 sec). The obtained binding reaction curves were subjected to fitting analysis with 1:1 binding models using software BIA evaluation attached to the system to calculate the affinity (KD=kd/ka) for human EphA4 (Table 6).

In assay [2] the target is T1, human EphA4 extracellular …. The experiment in a line: competition ELISA, competitor human Ephrin A5-Fc. As for the experimental part: Each anti-EphA4 monoclonal humanized antibody obtained in Example 16 was evaluated for its inhibitory activity against the binding between human EphA4 and its human ligand according to the following steps. Each well of a 96-well plate (Nunc) was coated with an anti-alkaline phosphatase antibody (Thermo Fisher Scientific). After incubation overnight at 4° C., each well was blocked with 1% BlockAce (DS Pharma Biomedical) at room temperature for 1 hour. After washing with 0.05% Tween 20/PBS (Thermo Fisher Scientific) three times, the human EphA4 extracellular region-SEAP-His protein obtained by the method of Example 2 was added (final concentration: 10 nM) to each well and incubated at room temperature for 1 hour. After washing three times, a ligand and each serially diluted humanized antibody of antibody A (0, 0.003, 0.01, 0.03, 0.1, 0.3, 1, 3, 10, 30, 100, 300, 1000, and 3000 nM) were added to each well. The ligand used was biotinylated human Ephrin A5-Fc chimera (R&D Systems, final concentration: 0.7 nM). After incubation at room temperature for 1 hour and subsequent washing three times, horseradish peroxidase-labeled streptavidin (GE Healthcare) was added thereto and incubated at room temperature for 1 hour. After washing three times, a TMBZ (3,3′,5,5′-tetramethylbenzidine, Sigma-Aldrich) solution was added to each well and incubated at room temperature for 2 minutes. An equal amount of a reaction stopping solution (1N H₂SO₄, Wako Pure Chemical Industries) was added to each well. The absorbance at 450 nm was read using a microplate reader (PerkinElmer).
In general terms: An ELISA detects its analyte on a solid surface through an enzyme-linked reagent.

Assay [3] deals with T2, human EphB1 extracellular region-SEAP-His protein (human, UniProt P54762 18-540).
T2 construct: extracellular domain; also called hEphB1-SEAP-His
T2 sequence (looked up): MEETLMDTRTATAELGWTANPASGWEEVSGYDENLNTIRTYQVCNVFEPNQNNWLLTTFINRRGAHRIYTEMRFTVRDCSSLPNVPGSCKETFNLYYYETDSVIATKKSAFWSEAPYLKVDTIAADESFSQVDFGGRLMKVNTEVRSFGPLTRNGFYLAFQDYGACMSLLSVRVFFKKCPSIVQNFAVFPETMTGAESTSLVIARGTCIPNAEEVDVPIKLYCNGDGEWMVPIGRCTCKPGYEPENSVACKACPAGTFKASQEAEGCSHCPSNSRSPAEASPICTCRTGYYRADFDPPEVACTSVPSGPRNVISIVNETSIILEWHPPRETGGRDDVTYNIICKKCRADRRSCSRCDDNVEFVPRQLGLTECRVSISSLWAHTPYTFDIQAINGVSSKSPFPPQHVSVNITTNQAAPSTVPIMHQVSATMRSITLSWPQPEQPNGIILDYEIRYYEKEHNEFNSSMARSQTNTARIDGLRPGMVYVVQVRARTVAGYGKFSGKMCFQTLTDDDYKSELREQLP
The assay can be described thus: ELISA. As for the experimental part: (§1) Each well of a 96-well plate (Nunc) was coated with a rabbit anti-6-His antibody (Bethyl Laboratories). Each well was […] After washing with 0.05% Tween 20/PBS (Nacalai Tesque) three times, the SEAP-His protein of human EphA1, EphA2, EphA3, EphA4, EphA5, EphA6, EphA7, EphA8, EphA10, EphB1, EphB2, EphB3, EphB4, or EphB6 was added (final concentration: 1 nM) to each well and incubated at room temperature for 1 hour. After washing three times, the humanized antibody was added to each well and incubated at room temperature for 1 hour. After washing three times, a horseradish peroxidase-labeled donkey […] antibody (Jackson ImmunoResearch Laboratories) was added thereto and incubated at room temperature for 1 hour. After washing three times, TMB Microwell Peroxidase Substrate System (Kirkegaard & Perry Laboratories (KPL)) was added to each well. After confirmation of moderate color development, an equal amount of a reaction stopping solution (1N H₂SO₄, Wako Pure Chemical Industries) was added to each well. The absorbance at 450 nm was read using a microplate reader (Thermo Fisher Scientific).

Assay [4] addresses T1, human EphA4 extracellular …. The assay can be described thus: ELISA. The protocol:
as §1

T1 sequence (P54764 20-547): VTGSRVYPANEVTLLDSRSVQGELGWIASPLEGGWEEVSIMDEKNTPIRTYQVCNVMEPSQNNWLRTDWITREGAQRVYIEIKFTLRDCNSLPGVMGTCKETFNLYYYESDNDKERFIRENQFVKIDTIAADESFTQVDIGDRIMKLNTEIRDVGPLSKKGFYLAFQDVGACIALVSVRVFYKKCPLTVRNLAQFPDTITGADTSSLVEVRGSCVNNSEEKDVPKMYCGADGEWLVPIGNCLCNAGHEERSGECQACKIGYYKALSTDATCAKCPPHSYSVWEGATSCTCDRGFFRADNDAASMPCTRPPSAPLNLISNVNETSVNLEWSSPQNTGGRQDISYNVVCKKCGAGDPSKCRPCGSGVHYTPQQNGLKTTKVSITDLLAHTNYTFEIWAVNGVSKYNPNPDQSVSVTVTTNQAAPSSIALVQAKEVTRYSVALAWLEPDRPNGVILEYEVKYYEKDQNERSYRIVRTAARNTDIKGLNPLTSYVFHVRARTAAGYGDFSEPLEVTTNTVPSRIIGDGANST

B1: antibody A (antibody, mouse IgG1, kappa, V domains shown)
VH: QIQLVQSGPELKKPGETVKISCKASGYTFTDYSMHWVKQAPGKGLKWMGWINTETGEPTYADDFKGRFAFSLETSASTAYLQINNLKNEDTATYFCARIPLYYYGSRYWYFDVWGAGTTVTVSS
VL: DIQMTQSPASLSVSVGETVTITCRASENIYRNLAWYQQKQGKSPQLLVYAATNLADGVPSRFSGSGSGTQYSLKINSLQSEDFGSYYCQHFWGTPWTFGGGTKLEIKR
notes: mouse IgG1 heavy chain, kappa light chain; purified from hybridoma supernatant; also called anti-EphA4 monoclonal antibody; antibody A-IgG
The Kd is the constant that tells how readily two partners part at equilibrium. Read a low Kd as higher affinity. As a reminder, the koff is a measure of how fast the partners let go of each other. Lower therefore signals a long-lived complex. As usually defined, the kon is the second-order rate constant of association. A high value points to faster complex formation. In assay [1], B1 displayed a Kd of 0.6 nM, an off-rate (koff) of 0.00025 s⁻¹ and a kon of 420000 M⁻¹ s⁻¹.

B2: humanized antibody No. 76 (antibody, human IgG1, kappa)
heavy: QVQLVQSGSELKKPGASVKVSCKASGYTFTDYSMHWVRQAPGQGLKWMGWINTETGEPTYAQGFTGRFVFSLDTSVSTAYLQISSLKAEDTAVYYCARIPLYYYGSRYWYFDVWGQGTTVTVSSASTKGPSVFPLAPSSKSTSGGTAALGCLVKDYFPEPVTVSWNSGALTSGVHTFPAVLQSSGLYSLSSVVTVPSSSLGTQTYICNVNHKPSNTKVDKRVEPKSCDKTHTCPPCPAPPAAAPSVFLFPPKPKDTLMISRTPEVTCVVVDVSHEDPEVQFNWYVDGVEVHNAKTKPREEQFNSTFRVVSVLTVVHQDWLNGKEYKCKVSNKGLPAPIEKTISKTKGQPREPQVYTLPPSREEMTKNQVSLTCLVKGFYPSDIAVEWESNGQPENNYKTTPPMLDSDGSFFLYSKLTVDKSRWQQGNVFSCSVMHEALHNHYTQKSLSLSPG
light: DIQMTQSPSSLSASVGDRVTITCRASENIYRNLAWYQQKPGKAPKLLVYAATNLADGVPSRFSGSGSGTDYTLTISSLQPEDFATYYCQHFWGTPWTFGQGTKVEIKRTVAAPSVFIFPPSDEQLKSGTASVVCLLNNFYPREAKVQWKVDNALQSGNSQESVTEQDSKDSTYSLSSTLTLSKADYEKHKVYACEVTHQGLSSPVTKSFNRGEC
notes: human Ig kappa; also called L1-4/HA2
What is called IC50 is the point on the concentration scale where inhibition reaches its midpoint. In assay [2], B2 gave an IC50 of 2.9 nM. In assay [1], this molecule had a Kd of 1 nM, a koff of 0.00034 s⁻¹ and a kon of 330000 M⁻¹ s⁻¹. Moreover, the “A450 as % of hEphA4-SEAP-His” value in assay [3] turned out to be 4.9%. Besides, in assay [4], the “A450 as % of hEphA4-SEAP-His” value came to 100%.

B3: humanized antibody No. 69 (antibody, human IgG1, kappa)
heavy: QIQLVQSGSELKKPGASVKVSCKASGYTFTDYSMHWVRQAPGQGLKWMGWINTETGEPTYADDFKGRFVFSLDTSVSTAYLQISSLKAEDTAVYYCARIPLYYYGSRYWYFDVWGQGTTVTVSSASTKGPSVFPLAPSSKSTSGGTAALGCLVKDYFPEPVTVSWNSGALTSGVHTFPAVLQSSGLYSLSSVVTVPSSSLGTQTYICNVNHKPSNTKVDKRVEPKSCDKTHTCPPCPAPPAAAPSVFLFPPKPKDTLMISRTPEVTCVVVDVSHEDPEVQFNWYVDGVEVHNAKTKPREEQFNSTFRVVSVLTVVHQDWLNGKEYKCKVSNKGLPAPIEKTISKTKGQPREPQVYTLPPSREEMTKNQVSLTCLVKGFYPSDIAVEWESNGQPENNYKTTPPMLDSDGSFFLYSKLTVDKSRWQQGNVFSCSVMHEALHNHYTQKSLSLSPG
light: DIQMTQSPSSLSASVGDRVTITCRASENIYRNLAWYQQKPGKAPKLLVYAATNLADGVPSRFSGSGSGTDYTLTISSLQPEDFATYYCQHFWGTPWTFGQGTKVEIKRTVAAPSVFIFPPSDEQLKSGTASVVCLLNNFYPREAKVQWKVDNALQSGNSQESVTEQDSKDSTYSLSSTLTLSKADYEKHKVYACEVTHQGLSSPVTKSFNRGEC
notes: human Ig kappa; also called L1-4/HK4
With B3, the IC50 in assay [2] worked out at 3.1 nM. In assay [1], the Kd is 1.1 nM, the koff stood at 0.00037 s⁻¹ and the kon stood at 340000 M⁻¹ s⁻¹. Besides, in assay [3], the “A450 as % of hEphA4-SEAP-His” value turned out to be 5.6%. In addition, the “A450 as % of hEphA4-SEAP-His” value in assay [4] is 100%.

B4: humanized antibody No. 75 (antibody, human IgG1, kappa)
heavy: QVQLVQSGSELKKPGASVKVSCKASGYTFTDYSMHWVRQAPGQGLEWMGWINTETGEPTYAQGFTGRFVFSLDTSVSTAYLQISSLKAEDTAVYYCARIPLYYYGSRYWYFDVWGQGTTVTVSSASTKGPSVFPLAPSSKSTSGGTAALGCLVKDYFPEPVTVSWNSGALTSGVHTFPAVLQSSGLYSLSSVVTVPSSSLGTQTYICNVNHKPSNTKVDKRVEPKSCDKTHTCPPCPAPPAAAPSVFLFPPKPKDTLMISRTPEVTCVVVDVSHEDPEVQFNWYVDGVEVHNAKTKPREEQFNSTFRVVSVLTVVHQDWLNGKEYKCKVSNKGLPAPIEKTISKTKGQPREPQVYTLPPSREEMTKNQVSLTCLVKGFYPSDIAVEWESNGQPENNYKTTPPMLDSDGSFFLYSKLTVDKSRWQQGNVFSCSVMHEALHNHYTQKSLSLSPG
light: DIQMTQSPSSLSASVGDRVTITCRASENIYRNLAWYQQKPGKAPKLLVYAATNLADGVPSRFSGSGSGTDYTLTISSLQPEDFATYYCQHFWGTPWTFGQGTKVEIKRTVAAPSVFIFPPSDEQLKSGTASVVCLLNNFYPREAKVQWKVDNALQSGNSQESVTEQDSKDSTYSLSSTLTLSKADYEKHKVYACEVTHQGLSSPVTKSFNRGEC
notes: constant region: human IgG1 CH1 and hinge, human IgG2 CH2 and CH3 with V234A, G237A, no C-terminal Lys; human Ig kappa; also called L1-4/HA1
In assay [2], B4 came in with an IC50 of 2.9 nM. In assay [1], this molecule gave a Kd of 1.2 nM, a koff of 0.00042 s⁻¹ and a kon of 380000 M⁻¹ s⁻¹. The “A450 as % of hEphA4-SEAP-His” value in assay [3] worked out at 4.4%. The “A450 as % of hEphA4-SEAP-His” value in assay [4] turned out to be 100%.

B5: humanized antibody No. 67 (antibody, human IgG1, kappa)
heavy: QIQLVQSGSELKKPGASVKVSCKASGYTFTDYSMHWVRQAPGQGLKWMGWINTETGEPTYAQGFTGRFVFSLDTSVSTAYLQISSLKAEDTAVYYCARIPLYYYGSRYWYFDVWGQGTTVTVSSASTKGPSVFPLAPSSKSTSGGTAALGCLVKDYFPEPVTVSWNSGALTSGVHTFPAVLQSSGLYSLSSVVTVPSSSLGTQTYICNVNHKPSNTKVDKRVEPKSCDKTHTCPPCPAPPAAAPSVFLFPPKPKDTLMISRTPEVTCVVVDVSHEDPEVQFNWYVDGVEVHNAKTKPREEQFNSTFRVVSVLTVVHQDWLNGKEYKCKVSNKGLPAPIEKTISKTKGQPREPQVYTLPPSREEMTKNQVSLTCLVKGFYPSDIAVEWESNGQPENNYKTTPPMLDSDGSFFLYSKLTVDKSRWQQGNVFSCSVMHEALHNHYTQKSLSLSPG
light: DIQMTQSPSSLSASVGDRVTITCRASENIYRNLAWYQQKPGKAPKLLVYAATNLADGVPSRFSGSGSGTDYTLTISSLQPEDFATYYCQHFWGTPWTFGQGTKVEIKRTVAAPSVFIFPPSDEQLKSGTASVVCLLNNFYPREAKVQWKVDNALQSGNSQESVTEQDSKDSTYSLSSTLTLSKADYEKHKVYACEVTHQGLSSPVTKSFNRGEC
notes: human Ig kappa; also called L1-4/HA4
B5: the IC50 in assay [2] is 4.4 nM. Further, in assay [1], the Kd amounted to 1.1 nM, the koff was 0.00035 s⁻¹ and the kon was 330000 M⁻¹ s⁻¹. Also, the “A450 as % of hEphA4-SEAP-His” value in assay [3] turned out to be 4.6%. Moreover, the “A450 as % of hEphA4-SEAP-His” value in assay [4] amounted to 100%.
